In general, EC50 (read off the curve) refers to the concentration that produces a half-maximal response.

Non-standard residues stand in square brackets, D forms with d. No end group written: not given here. Ahx = NCCCCCC(=O)O

These results are taken from patent US20220242939A1 (BIOARCTIC, published 2022).

The target of the assay is T1, A199 N-terminal neo-epitope peptide AGQPLQ-Acp-C (SEQ ID NO:51) conjugated to BSA (human, not fully specified (residue 8); printed as AGQPLQ-Acp-C; also: C-terminal Cys conjugated to BSA carrier).
T1 construct: BSA carrier; also called A199-BSA peptide
T1 peptide: AGQPLQ[Ahx]C
The assay is described as follows: direct ELISA, second protocol; proteins coated at 0.1 uM, BSA peptides at 1 ug/ml; antibody in 3-fold dilutions from 3000 ng/ml; blank reduced OD 450 nm. As for the experimental part:
The screening was performed according to standard ELISA protocols. Briefly, 1 μg/ml solutions of BSA-conjugated neo-epitope peptides, recombinant C-terminal ApoE fragment, negative control peptide and full-length ApoE were prepared by dilution in PBS. 50 μl/well were added to an ELISA half-area 96 well microtiter plate, the plate was sealed with adhesive sealer and incubated over night at 4° C. After discarding the solution, the plates were blocked with 150 μl/well of protein-free blocking solution (Pierce) for 1 h at room temperature with shake (900 rpm). The plates were washed four times with washing buffer containing 0.28 mM NaH₂PO₄, 2.5 mM Na₂HPO₄, 150 mM NaCl, 0.1% TWEEN®-20 and 0.0075% Kathon CG. […] An anti-ApoE C-terminal antibody was used as a reference antibody (ApoE E-8 mouse monoclonal, cat. no. sc-393302; Santa Cruz Biotechnology). 50 μl/well were added into the ELISA plates and incubated for 2 h at room temperature with shake (900 rpm). The plates were washed four times as described previously. […] After another wash (as described previously), 50 μl/well of K-Blue® aqueous substrate (Neogen) were added, and the reaction was stopped after 5-15 min with 50 μl/well of 0.5 M […]. The optical density at 450 nm was read using an ELISA reader (Tecan). The optical density was plotted against the antibody concentration to generate concentration-response curves (FIG. 16).
These were added in the same molarity (0.1 μM) to provide an equal number of molecules available for binding by the antibodies (BSA-coupled peptides were coated at 1 μg/ml as before).
Background: An ELISA detects its analyte on a solid surface through an enzyme-linked reagent.

B1: 28F2, recombinant IgG2c antibody (antibody, V domains shown)
VH: QIQLVQSGPDLKKPGETVKISCKASGYTFTNYAMHWMKQAPGKALKWMGWINTYTGEPTFADDFKGRFAFSLETSASTAYLQINSLKNEDMATYFCAREGYYDRSHYFDYWGQGTTLTVSS
VL: DVLMTQTPLSLPVSLGDQASISCRSSLSLVHGDGNTYLEWYLQKPGQSPKLLIYKVSNRFSGVPDRFSGSGSGTDFTLKISRVEAEDLGVYYCLQGSHIPFTFGSGTKLEIK
Consider B1, for which the “EC50 (read off the curve)” value is ~0.1 µg/mL.
